Key:
[1] = target: mycoplasma pneumonia P30 (purified protein P30Ag produced by expressing amino acids 96-274 with Escherichia coli) (Mycoplasma pneumoniae) (UniProt P75330); assay: ELISA, P30Ag coated at 4 ng/mL, antibody 5 ug/mL, anti-mouse IgG-peroxidase
[2] = target: P30 protein of Mycoplasma pneumoniae as present in Mycoplasma pneumoniae analytes (deactivated Mycoplasma pneumoniae Antigen (FH), Meridian; pharyngeal swabs of infected subjects) (Mycoplasma pneumoniae) (UniProt P75330); assay: immunochromatography sandwich (Com. Ex. 7), label P30(b), detection P30(b); pharyngeal swab Subject 1
[3] = target: P30 protein of Mycoplasma pneumoniae as present in Mycoplasma pneumoniae analytes (deactivated Mycoplasma pneumoniae Antigen (FH), Meridian; pharyngeal swabs of infected subjects) (Mycoplasma pneumoniae) (UniProt P75330); assay: immunochromatography sandwich (Com. Ex. 2), label P30(b), detection P30(b); pharyngeal swab Subject 2
[4] = target: P30 protein of Mycoplasma pneumoniae as present in Mycoplasma pneumoniae analytes (deactivated Mycoplasma pneumoniae Antigen (FH), Meridian; pharyngeal swabs of infected subjects) (Mycoplasma pneumoniae) (UniProt P75330); assay: immunochromatography sandwich (Com. Ex. 1), label P30(a), detection P30(b); pharyngeal swab Subject 2
[5] = target: P30 protein of Mycoplasma pneumoniae as present in Mycoplasma pneumoniae analytes (deactivated Mycoplasma pneumoniae Antigen (FH), Meridian; pharyngeal swabs of infected subjects) (Mycoplasma pneumoniae) (UniProt P75330); assay: immunochromatography sandwich (Com. Ex. 7), label P30(b), detection P30(b); deactivated Mycoplasma pneumoniae (FH)
[6] = target: mycoplasma pneumonia P30 (purified protein P30Ag produced by expressing amino acids 96-274 with Escherichia coli) (Mycoplasma pneumoniae) (UniProt P75330); assay: immunochromatography sandwich, P30(b)-gold label and P30(b) detection line, P30Ag 10 pg/mL, no peptide
[7] = target: P30 protein of Mycoplasma pneumoniae as present in Mycoplasma pneumoniae analytes (deactivated Mycoplasma pneumoniae Antigen (FH), Meridian; pharyngeal swabs of infected subjects) (Mycoplasma pneumoniae) (UniProt P75330); assay: immunochromatography sandwich (Com. Ex. 1), label P30(a), detection P30(b); deactivated Mycoplasma pneumoniae (FH)
[8] = target: P30 protein of Mycoplasma pneumoniae as present in Mycoplasma pneumoniae analytes (deactivated Mycoplasma pneumoniae Antigen (FH), Meridian; pharyngeal swabs of infected subjects) (Mycoplasma pneumoniae) (UniProt P75330); assay: immunochromatography sandwich (Com. Ex. 6), label P30(a), detection P30(b); deactivated Mycoplasma pneumoniae (FH); Triton X-100/Tween 20 diluent
[9] = target: mycoplasma pneumonia P30 (purified protein P30Ag produced by expressing amino acids 96-274 with Escherichia coli) (Mycoplasma pneumoniae) (UniProt P75330); assay: immunochromatography sandwich (Com. Ex. 8), label P30(a), detection P30(b); analyte P30Ag
[10] = target: full-length protein mycoplasma pneumonia P30 (amino acids 1-274; SEQ ID NO: 1) (Mycoplasma pneumoniae) (UniProt P75330); assay: ELISA, full-length P30 coated, 5 ug/mL P30(b), no peptide (0 point of the peptide 2 series)
[11] = target: P30 protein of Mycoplasma pneumoniae as present in Mycoplasma pneumoniae analytes (deactivated Mycoplasma pneumoniae Antigen (FH), Meridian; pharyngeal swabs of infected subjects) (Mycoplasma pneumoniae) (UniProt P75330); assay: immunochromatography sandwich (Com. Ex. 7), label P30(b), detection P30(b); pharyngeal swab Subject 2
[12] = target: P30 protein of Mycoplasma pneumoniae as present in Mycoplasma pneumoniae analytes (deactivated Mycoplasma pneumoniae Antigen (FH), Meridian; pharyngeal swabs of infected subjects) (Mycoplasma pneumoniae) (UniProt P75330); assay: immunochromatography sandwich (Com. Ex. 2), label P30(b), detection P30(b); pharyngeal swab Subject 1
[13] = target: full-length protein mycoplasma pneumonia P30 (amino acids 1-274; SEQ ID NO: 1) (Mycoplasma pneumoniae) (UniProt P75330); assay: ELISA, full-length P30 coated, 5 ug/mL P30(b), no peptide (0 point of the peptide 1 series)
[14] = target: P30 protein of Mycoplasma pneumoniae as present in Mycoplasma pneumoniae analytes (deactivated Mycoplasma pneumoniae Antigen (FH), Meridian; pharyngeal swabs of infected subjects) (Mycoplasma pneumoniae) (UniProt P75330); assay: immunochromatography sandwich (Com. Ex. 1), label P30(a), detection P30(b); pharyngeal swab Subject 1
[15] = target: P30 protein of Mycoplasma pneumoniae as present in Mycoplasma pneumoniae analytes (deactivated Mycoplasma pneumoniae Antigen (FH), Meridian; pharyngeal swabs of infected subjects) (Mycoplasma pneumoniae) (UniProt P75330); assay: immunochromatography sandwich (Com. Ex. 2), label P30(b), detection P30(b); deactivated Mycoplasma pneumoniae (FH)
[16] = target: P30 protein of Mycoplasma pneumoniae as present in Mycoplasma pneumoniae analytes (deactivated Mycoplasma pneumoniae Antigen (FH), Meridian; pharyngeal swabs of infected subjects) (Mycoplasma pneumoniae) (UniProt P75330); assay: immunochromatography sandwich (Com. Ex. 6), label P30(a), detection P30(b); pharyngeal swab Subject 1; Triton X-100/Tween 20 diluent
[17] = target: P30 protein of Mycoplasma pneumoniae as present in Mycoplasma pneumoniae analytes (deactivated Mycoplasma pneumoniae Antigen (FH), Meridian; pharyngeal swabs of infected subjects) (Mycoplasma pneumoniae) (UniProt P75330); assay: immunochromatography sandwich (Com. Ex. 6), label P30(a), detection P30(b); pharyngeal swab Subject 2; Triton X-100/Tween 20 diluent
[18] = target: mycoplasma pneumonia P30 (purified protein P30Ag produced by expressing amino acids 96-274 with Escherichia coli) (Mycoplasma pneumoniae) (UniProt P75330); assay: immunochromatography sandwich (Com. Ex. 9), label P30(b), detection P30(b); analyte P30Ag
[19] = target: antibody P30(a) (Fucal Research product Mp-P30-3-AB); assay: competitive inhibition ELISA, full-length P30 coated at 4 ng/mL, 5 ug/mL P30(a) + peptide 1 at 40 times the antibody amount
[20] = target: antibody P30(a) (Fucal Research product Mp-P30-3-AB); assay: immunochromatography competition, 400 ng peptide 1 developed with P30Ag 10 pg/mL, P30(a) label and detection
[21] = target: antibody P30(b) (Fucal Research product Mp-P30-9-AB); assay: immunochromatography competition, 400 ng peptide 1 developed with P30Ag 10 pg/mL, P30(b) label and detection
[22] = target: antibody P30(b) (Fucal Research product Mp-P30-9-AB); assay: competitive inhibition ELISA, full-length P30 coated, 5 ug/mL P30(b) + peptide 1 at x160 the antibody concentration
[23] = target: antibody P30(b) (Fucal Research product Mp-P30-9-AB); assay: competitive inhibition ELISA, full-length P30 coated, 5 ug/mL P30(b) + peptide 1 at x10 the antibody concentration
[24] = target: antibody P30(a) (Fucal Research product Mp-P30-3-AB); assay: competitive inhibition ELISA, full-length P30 coated, 5 ug/mL P30(a) + peptide 1 at x20 the antibody concentration
[25] = target: antibody P30(b) (Fucal Research product Mp-P30-9-AB); assay: competitive inhibition ELISA, full-length P30 coated, 5 ug/mL P30(b) + peptide 1 at x20 the antibody concentration
[26] = target: antibody P30(b) (Fucal Research product Mp-P30-9-AB); assay: competitive inhibition ELISA, full-length P30 coated, 5 ug/mL P30(b) + peptide 1 at x640 the antibody concentration
[27] = target: antibody P30(b) (Fucal Research product Mp-P30-9-AB); assay: competitive inhibition ELISA, full-length P30 coated, 5 ug/mL P30(b) + peptide 1 at x40 the antibody concentration
[28] = target: antibody P30(a) (Fucal Research product Mp-P30-3-AB); assay: competitive inhibition ELISA, full-length P30 coated, 5 ug/mL P30(a) + peptide 1 at x160 the antibody concentration
[29] = target: antibody P30(a) (Fucal Research product Mp-P30-3-AB); assay: competitive inhibition ELISA, full-length P30 coated, 5 ug/mL P30(a) + peptide 1 at x320 the antibody concentration
[30] = target: antibody P30(a) (Fucal Research product Mp-P30-3-AB); assay: competitive inhibition ELISA, full-length P30 coated, 5 ug/mL P30(a) + peptide 1 at x10 the antibody concentration
[31] = target: antibody P30(b) (Fucal Research product Mp-P30-9-AB); assay: competitive inhibition ELISA, full-length P30 coated, 5 ug/mL P30(b) + peptide 1 at x320 the antibody concentration
[32] = target: antibody P30(a) (Fucal Research product Mp-P30-3-AB); assay: competitive inhibition ELISA, full-length P30 coated, 5 ug/mL P30(a) + peptide 1 at x80 the antibody concentration
[33] = target: antibody P30(a) (Fucal Research product Mp-P30-3-AB); assay: competitive inhibition ELISA, full-length P30 coated, 5 ug/mL P30(a) + peptide 1 at x1 the antibody concentration
[34] = target: antibody P30(b) (Fucal Research product Mp-P30-9-AB); assay: competitive inhibition ELISA, full-length P30 coated, 5 ug/mL P30(b) + peptide 1 at x1 the antibody concentration
[35] = target: antibody P30(a) (Fucal Research product Mp-P30-3-AB); assay: competitive inhibition ELISA, full-length P30 coated, 5 ug/mL P30(a) + peptide 1 at x640 the antibody concentration
[36] = target: antibody P30(b) (Fucal Research product Mp-P30-9-AB); assay: competitive inhibition ELISA, full-length P30 coated, 5 ug/mL P30(b) + peptide 1 at x80 the antibody concentration
[37] = target: antibody P30(a) (Fucal Research product Mp-P30-3-AB); assay: competitive inhibition ELISA, full-length P30 coated, 5 ug/mL P30(a) + peptide 1 at x40 the antibody concentration

For “antibody P30(b) (Fucal Research product Mp-P30-9-AB)”, the absorbance at 450 nm after subtracting the blank [1] was 0.061 Abs, the Color intensity (mAbs) [2] was 15.2 mAbs and the Color intensity (mAbs) [3] was 6.1 mAbs. It also gave a Color intensity (mAbs) [4] of 7.9 mAbs, a Color intensity (mAbs) [5] of 40.5 mAbs and a Color intensity after 15 min [6] of 58.2 mAbs. The Color intensity (mAbs) [7] was 79.4 mAbs, the Color intensity (mAbs) [8] was 159 mAbs and the Color intensity (mAbs) [9] was 31.8 mAbs. The Color intensity (Abs) [10] was 0.208 Abs, the Color intensity (mAbs) [11] was 8.9 mAbs and the Color intensity (mAbs) [12] was 8.9 mAbs. For the same molecule, the Color intensity (Abs) [13] was 0.208 Abs, the Color intensity (mAbs) [14] was 16.3 mAbs and the Color intensity (mAbs) [15] was 18.9 mAbs. It also gave a Color intensity (mAbs) [16] of 29.8 mAbs, a Color intensity (mAbs) [17] of 13.6 mAbs and a Color intensity (mAbs) [18] of 24.3 mAbs.

In the case of PGMAPRPGMPPHPGMAPR [Peptide 1 (SEQ ID NO: 6: …)], the percentage reduction of absorbance [19] is reported as over 30%, the Color intensity after 15 min [20] is reported as 100 mAbs and the Color intensity after 15 min [21] is reported as 60.9 mAbs. For the same molecule, the Color intensity (Abs) [22] was 0.223 Abs, the Color intensity (Abs) [23] was 0.256 Abs and the Color intensity (Abs) [24] was 0.322 Abs. It also gave a Percentage reduction of color intensity (%) [24] of 22%, a Color intensity (Abs) [25] of 0.228 Abs and a Color intensity (Abs) [26] of 0.225 Abs. It also gave a Color intensity (Abs) [27] of 0.232 Abs, a Color intensity (Abs) [28] of 0.134 Abs and a Percentage reduction of color intensity (%) [28] of 67%. For the same molecule, the Color intensity (Abs) [29] was 0.132 Abs, the Percentage reduction of color intensity (%) [29] was 68% and the Color intensity (Abs) [30] was 0.341 Abs. For the same molecule, the Percentage reduction of color intensity (%) [30] was 17%, the Color intensity (Abs) [31] was 0.23 Abs and the Color intensity (Abs) [32] was 0.17 Abs. The Percentage reduction of color intensity (%) [32] was 59%, the Color intensity (Abs) [33] was 0.37 Abs and the Percentage reduction of color intensity (%) [33] was 10%. For the same molecule, the Color intensity (Abs) [34] was 0.226 Abs, the Color intensity (Abs) [35] was 0.12 Abs and the Percentage reduction of color intensity (%) [35] was 71%. The Color intensity (Abs) [36] was 0.237 Abs, the Color intensity (Abs) [37] was 0.24 Abs and the Percentage reduction of color intensity (%) [37] was 42%.

Reference: US20180172684A1
